Assay results from patent publication US20260069536A1, “COMPOSITIONS, SYSTEMS, AND METHODS FOR DELIVERY OF THERAPEUTICS” (THE JOHNS HOPKINS UNIVERSITY, priority 2022, published 2026).
Square brackets hold non-standard residues; d marks the D form. Ends that are not written are not given here. Nva = CCC[C@H](N)C(=O)O

Columns and labels:
[1] = system: full MHC mismatch (C57BL/6 to BALB/c) mouse heart transplantation model; assay: Mouse heart transplantation model, systemic Tofa with CTLA4-Ig; type: in vivo
[2] = system: mouse heart transplant model; assay: Mouse heart transplant model, localized Tofa hydrogel with CTLA4-Ig; type: in vivo; conditions: localized release around the transplanted heart, single administration
From the text: FIG. 3A is a schematic of localized delivery of Tofacitinib (Tofa) microcrystals from a hydrogel (MTH) implanted in mice receiving heterotopic heart transplant. FIG. 3B is survival curves of C57Bl/6 mice receiving BALB/c heart transplants under the indicated treatments.
A peptide hydrogel (MAX8) that self-assembles at physiological conditions and encapsulated crystalline Tofa (cJAKi-Hydro) was used to assess that the localized release of a JAKi (Tofa) around the transplanted heart would have synergism with CTLA4-Ig as systemic Tofa administration (FIG. 3A).

dendritic cells = assay: Maturation of dendritic cells under Tofa; type: cell-based
Treg = assay: Suppressive activity of Treg under Tofa; type: cell-based
[3] = Release of microcrystalline tofacitinib from peptide gels (UV-Vis); type: physicochemical; conditions: 32 mM microcrystalline deposits, after 10 days
Method: The release rates of microcrystalline tofacitinib from select peptide gels (MAX8 and HLT2) was determined as in Majumder, P., et al., Small 2020, 16, 2002791, incorporated herein by reference (FIG. 18A). As such, the release rates were established for the enzyme cleavable peptides (nVET1 and IVET1) at two different drug loads—16 mM and 32 mM. The release of tofacitinib was quantified using UV-Vis spectroscopy (λ=285 nm). […] The release profile is thus dependent on the final concentration of drug loaded and consistent with crystal dissolution being rate-determining.

[4] = Release of Ani2-NLCs from peptide gels in the absence of enzyme; type: physicochemical
Method: (§1) Preliminary experiments were conducted on the proteolytic stability of the peptides and the impact on the release of the encapsulated NLCs. To investigate protease-mediated release, comparative release rates of Ani2-NLCs were studied with respect to nVET2 and IVET1 gels in trypsin-rich and MMP12-rich environments. Ani2-NLCs are retained within the gels over extended periods of time due to their negative zeta potential that allows them to bind to the positively charged gel network.
(§2) Upon trypsinization, both IVET1 and nVET2 gels show faster release rates of Ani2-NLCs than those observed in the absence of the protease. […] These relative release trends of IVET1 and nVET2 gels are somewhat consistent with the degradation of the individual peptides by trypsin and MMP12. Trypsin hydrolyzes proteins at the carboxyl side of lysine and arginine amino acid residues and as such, the peptides IVET1 and nVET2 contain six cleavable sites with respect to trypsin. On the other hand, MMP12 recognizes a single cleavage site (PLG↓VR) within each of the peptide sequences. Thus, the observed rate of release of the NLCs is proportional to the number of protease-specific cleavage sites within the peptide sequence
At the end of 10 days, less than 20% of Ani2-NLCs were released in the absence of enzyme. Thus, two distinct release regimes of tofacitinib are attainable with simultaneous incorporation of the drug as microcrystalline deposits and as Tofa-NLCs.

trypsin = assay: Protease-mediated release of NLC from peptide gels, trypsin; type: physicochemical; conditions: first 24 hours; for increase in release rate upon trypsinization: relative to absence of protease; for Ani2-NLCs released: with trypsin
Method: FIGS. 10A and 10B show protease responsive LNp release. […] FIG. 10B is a graph of the release profiles of Ani2-NLC from Peptide-4 gels in response to trypsin.
IVET2—SEQ ID NO: 7; IVET1—SEQ ID NO: 8; nVET2—SEQ ID NO: 9; nVET1—SEQ ID NO: 10.
as §1, §2

MMP12 [5] = biological target: T1, MMP12 (Homo sapiens, UniProt P39900); assay: Protease-mediated release of NLC from peptide gels, MMP12; type: physicochemical; conditions: MMP12 treated gels
T1 sequence (P39900 106-470, species assumed): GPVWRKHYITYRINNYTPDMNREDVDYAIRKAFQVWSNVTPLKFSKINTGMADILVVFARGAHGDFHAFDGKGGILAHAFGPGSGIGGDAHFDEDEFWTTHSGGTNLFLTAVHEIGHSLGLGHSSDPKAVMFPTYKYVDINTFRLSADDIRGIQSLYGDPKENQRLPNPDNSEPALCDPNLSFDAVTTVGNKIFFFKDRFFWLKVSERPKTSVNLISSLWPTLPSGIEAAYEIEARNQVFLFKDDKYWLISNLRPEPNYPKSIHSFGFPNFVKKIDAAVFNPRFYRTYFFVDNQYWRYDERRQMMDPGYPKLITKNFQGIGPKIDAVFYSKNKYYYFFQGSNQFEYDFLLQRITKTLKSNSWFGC
Method: as §1, §2

MMP12 [6] = biological target: T1, MMP12; assay: Rheology of MMP12-treated peptide gels; type: physicochemical; conditions: 150 ul, 1 wt % gels, 37° C., MMP12, 1×HBS pH 7.4, 12 days
Method: To provide further insight into the mechanistic effects of the gel release rates described above, the rheological properties of the MMP12-treated peptide gels were investigated. For this study, pre-formed IVET1 gels (150 ul, 1 wt %) were incubated at 37° C. with MMP12 (1×HBS, pH 7.4) and the storage modulus at 6.3 rad/s (obtained from frequency sweep measurements) was plotted at different time points for each gel. […] Despite peptide cleavage, the gels remained intact due to the stable cross-linked fiber network supported by the inter-hairpin hydrophobic contacts of the peptides upon self-assembly.

[7] = Gel stiffness (storage modulus G′) after NLC encapsulation; type: physicochemical; conditions: following encapsulation of neutral or negatively-charged NLCs
From the text: FIGS. 6A-6C show LNp encapsulation in a hydrogel. FIG. 6A is a graph of the comparative storage moduli (G′) of MAX8 gels with and without Neut-NLCs and Ani2-NLCs. FIG. 6B is a graph of the cumulative release profiles of Neut-NLC and Ani2-NLC from MAX8 gels. FIG. 6C is an image of LNp retention by MAX8 gels. A lipophilic dye (pink) was encapsulated within the NLCs to quantify release after 5 days.
To improve particle retention within the gel, the nanoparticles were modified to achieve a slightly negative surface charge (the hydrogel network is positively charged) by adding a small percentage of anionic surfactant (Glycolic Acid Ethoxylate Oleyl Ether) together with the Gelucire 44/14. Two different ratios of these surfactants were used until similarly sized nanoparticles were achieved.

[8] = Hydrogel toxicity after SQ injection in skin flap; conditions: SQ injection after flap raise, visual monitoring
Method: To this end, the condition of transplants was replicated by surgically separating the skin of the prospective area of injection (flap raise) followed by suturing the edges. After completion of the surgical procedure, empty hydrogel or Tofa containing hydrogel was injected SQ and the area monitored visually for any macroscopic sign of toxicity.

[9] = absence of enzyme, end of 10 days
[10] = absence of trypsin (control gel), first 24 hours

| Compound | drug release [3] | Ani2-NLCs released [4, 9] | Ani2-NLCs released [4, 10] [%] | increase in release rate upon trypsinization (trypsin) [fold] | Ani2-NLCs released (trypsin) [%] | release rate of Ani2-NLCs (MMP12 [5]) | also measured |
| --- | --- | --- | --- | --- | --- | --- | --- |
| C[C@@H]1CCN(C(=O)CC#N)C[C@@H]1N(C)c1ncnc2[nH]ccc12 [Tofa, 3-((3R,4R)-4-methyl-3-(methyl(7H-pyrrolo[2,3-d]pyrimidin-4-yl)amino)piperidin-1-yl)-3-oxopropanenitrile] |  |  |  |  |  |  | differentiation of TH1 effector T cells ([1]; Tofa+CTLA4-Ig): inhibition of the differentiation of TH1 effector T cells; regulatory T cells (Treg) ([1]; Tofa+CTLA4-Ig): accumulation of a high frequency of regulatory T cells; graft survival with ischemic hearts ([1]; Tofa+CTLA4-Ig, hearts kept ischemic for 4h before transplantation): improvement in survival was unaffected; graft survival ([1]; combination with CTLA4-Ig, Tofa POD-1 to POD6, twice daily via oral gavage): promoted long-term graft survival; graft survival [2]: as effective at synergizing with systemic CTLA4-Ig as 16 oral gavage administrations; up-regulation of MHC-II molecules (dendritic cells; dendritic cells): did not prevent the up-regulation of MHC-II molecules; maturation of dendritic cells (dendritic cells; upregulation of costimulatory molecules and secretion of pro-inflammatory cytokines): very effective at preventing the maturation of dendritic cells; suppressive activity of Treg (Treg): only minimally affected the suppressive activity of Treg |
| (nV)K(nV)E(nV)KVKV^DPPLGVRTK(nV)K(nV) ([Nva]K[Nva]E[Nva]KVKVPPLGVRTK[Nva]K[Nva]; also: P10 written ^DP (meaning not given here)) [nVET1] | less than 60% | less than 20% |  |  |  |  |  |
| (nV)KTE(nV)KVKV^DPPLGVRTK(nV)K(nV) ([Nva]KTE[Nva]KVKVPPLGVRTK[Nva]K[Nva]; also: P10 written ^DP (meaning not given here)) [nVET2] |  |  | 10 | 3 | 30 | intermediate between their respective trypsin-rich and protease-free gel environments |  |
| IKVEIKVKV^DPPLGVRTKIKV (IKVEIKVKVPPLGVRTKIKV; also: P10 written ^DP (meaning not given here)) [IVET1] | less than 60% | less than 20% | 1.5 | ~12 | 17.4 | intermediate between their respective trypsin-rich and protease-free gel environments | storage modulus at 6.3 rad/s (MMP12 [6]): relatively stable storage modulus |
| VKVKVKVKV^DPPTKVEVKVKV (VKVKVKVKVPPTKVEVKVKV; not fully specified (residue 10)) [MAX8] |  |  |  |  |  |  | gel stiffness [7]: stiffness is maintained; macroscopic sign of toxicity [8]: absence of any evidence of toxicity |
